Source: the Human Domainome abundance scans (Beltran et al. 2025)

B1: Glucocorticoid receptor, residues 419 to 494; numbered along this chain, P04150 (parent)
chain: KLCLVCSDEASGCHYGVLTCGSCKVFFKRAVEGQHNYLCAGRNDCIIDKIRRKNCPACRYRKCLQAGMNLEARKTK

Variants of: B1
Assay: abundance fitness (aPCA) (normalised: wild type 0, dead -1); higher = more abundant; growth selection in yeast, the domain comes from the species named
Conditions: Homo sapiens

Abundance fitness: each site, then its substitutions
C45: I -0.948, V -0.698, E -0.762, H -0.168, P -1.02, A -0.797, W -0.932, Q -0.558, K -1.27, F -0.649, R -0.778, L -0.917, M -1.18, Y -0.704, T -0.99
R52: W -0.112, A -0.051, G -0.016, P -0.203, V -0.056, E -0.028, L -0.048, C 0.051, S -0.12, M -0.101, T -0.129, K -0.03, I -0.093
D44: I -0.344, V -0.053, S -0.08, F -0.381, R -0.088, E 0.032, Q -0.026, G -0.145, T -0.023, C 0.009, H -0.11, N -0.073, K -0.062, Y -0.37, A -0.014, L -0.189, M 0, P -0.323, W -0.423
I50: T -0.007, Q 0.046, Y -0.143, A -0.004, R 0.005, P 0.081, E -0.028, N -0.018, H -0.153, W -0.02, V 0.013, L 0.046, D -0.032, S 0.015, M 0.055, G 0.009
C39: L -0.923, I -1, H -0.575, D -0.863, N -0.603, R -0.976, S -0.927, T -0.553, M -0.998, Y -0.951, V -1, K -0.787, Q -0.586, G -0.716, P -0.585, E -0.641, W -0.992, F -0.603
I47: W -0.542, A -0.368, V 0.015, L -0.135, T -0.125, C -0.438, G -0.304, F -0.449, S -0.252, K -0.267, M -0.143, P -0.442, H -0.304, D -0.072, R -0.406, Q -0.183, N -0.164, E -0.216
H35: S -0.114, M 0.018, D 0.005, A 0.018, P 0.003, W -0.074, K -0.002, N 0.11, G 0.024, L -0.025, R -0.044, F 0.013, C -0.128, V -0.027, I -0.071, Q -0.044, Y -0.08
A40: H -0.192, C -0.137, W -0.079, Y -0.032, R -0.043, I -0.038, Q 0.012, V 0.019, D -0.136, P -0.066, G -0.04, F -0.088, L -0.065, M -0.058, E -0.048, T -0.067, N -0.024
L38: D 0.102, T -0.035, Y -0.035, C -0.03, Q -0.024, P -0.155, S -0.035, I -0.043, G -0.059, A 0.01, N 0.02, V 0.058, E 0.012, F 0.018, M 0.02, H 0.035, K 0.033
Y37: N -0.026, G -0.074, C -0.299, F 0.011, M 0.013, Q -0.137, V -0.116, L -0.003, R -0.211, K -0.122, H -0.117, T -0.084, D -0.144, I -0.08, P -0.104, E -0.107
N36: D -0.065, H -0.042, E 0.002, L -0.036, G -0.057, K 0.038, I -0.054, F -0.006, V -0.106, C -0.133, Y -0.259, W -0.151, P -0.05, T -0.008, M 0.008, S 0.022, Q -0.034, A -0.012
K49: E -0.097, D -0.164, R -0.004, V 0.024, C 0.045, F -0.019, W -0.129, Q -0.033, H -0.045, M -0.021, N -0.06, T -0.001, S -0.037, Y -0.077, L -0.054, P 0.016
G33: V -0.044, W -0.135, T -0.139, Y 0.035
Q34: W -0.136, R 0.002, F -0.256, L -0.099, T -0.064, I -0.188, H -0.14, N 0.08, D -0.046, Y -0.136, K -0.035, C -0.028, P -0.114, V -0.073, E -0.051, A -0.016, M 0.017
K53: Q 0.016, P -0.027, M 0.001, D 0.083, I -0.091, S -0.009, C -0.263, H -0.038, F -0.033, E 0.058, R -0.015, T -0.024, A 0.014, G 0.039, V -0.037, L -0.017
R42: V 0.033, T 0.036, H -0.011, E 0.011, G 0.009, F 0.077, K 0.106, Y -0.065, N 0.093, L 0.012, Q 0.127, I -0.062, W -0.077, A 0.01, D 0.06, M -0.024, C -0.064, S 0.001
D48: Y -0.139, A -0.327, L -0.437, Q -0.385, H -0.449, R -0.536, V -0.596, P -0.591, E -0.072, K -0.487, T -0.045, I -0.579, W -0.415, G -0.334, N 0.024, S -0.142, C -0.529
G41: E -0.043, D -0.049, Y -0.123, I -0.101, R 0.02, L -0.013, T -0.04, S -0.031, M -0.004, W -0.017, K 0.011, N 0.032, C -0.005, V -0.051, A -0.016, Q -0.055
R51: I -0.134, M 0.042, V -0.068, W -0.083, S -0.023, T -0.016, A -0.072, L -0.031, F 0.051, Q -0.002, P -0.136, C -0.215, N -0.031, G 0.009
I46: Q 0.064, H -0.045, V -0.027, Y 0.029, L -0.039, C -0.025, A 0.031, F 0.087, T 0.029, P -0.048, S 0.005, E -0.009, N -0.002, R -0.012, W -0.137
N43: T -0.134, P -0.575, A -0.027, I -0.233, K 0.013, C -0.193, R -0.052, G -0.024, Y -0.008, D -0.008, S -0.044, V -0.285, F -0.02, E 0.011, Q 0.028, W -0.056, L -0.123
